Data published in US20250326840A1.

Legend:
[1] = target: human PD-L1 on HCC827 cells (human) (UniProt Q9NZQ7); assay: FACS on HCC827 cells
[2] = target: PD-L1-his (QPP09) (human) (UniProt Q9NZQ7); assay: ELISA, PD-L1 captured by coated anti-HIS antibody
Chain of PD-L1-his (QPP09) (human) (Q9NZQ7 19-239 limits assumed): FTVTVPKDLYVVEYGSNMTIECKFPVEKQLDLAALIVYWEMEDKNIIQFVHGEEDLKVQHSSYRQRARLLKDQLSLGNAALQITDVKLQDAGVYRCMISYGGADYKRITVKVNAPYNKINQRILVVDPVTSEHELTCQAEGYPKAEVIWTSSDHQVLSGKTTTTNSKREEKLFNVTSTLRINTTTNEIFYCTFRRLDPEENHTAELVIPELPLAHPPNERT

Chain of human PD-L1 on HCC827 cells (human) (Q9NZQ7 19-290): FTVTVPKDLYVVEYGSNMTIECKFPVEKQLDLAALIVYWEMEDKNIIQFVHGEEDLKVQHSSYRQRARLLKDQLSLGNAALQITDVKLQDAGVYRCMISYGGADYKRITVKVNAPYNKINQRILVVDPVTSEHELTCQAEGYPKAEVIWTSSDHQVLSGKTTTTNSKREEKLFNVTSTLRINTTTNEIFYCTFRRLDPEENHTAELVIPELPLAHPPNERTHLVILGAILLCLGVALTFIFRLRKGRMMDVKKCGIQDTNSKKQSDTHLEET

EC50 [1]: 0.109 nM
EC50 [2]: 0.0919 nM
Substance: Tecentriq (antibody)
